The assay has as its target Schlegelella thermodepolymerans KpsE (L77C, S138C) (Schlegelella thermodepolymerans). The assay is described as follows: cryo-EM structure; KpsMT(E151Q)-KpsE, co-expressed and purified in LMNG (100 mM NaCl, 50 mM Tris pH 7.5, 0.025% LMNG, 5 mM MgCl2), supplemented with 2 mM ATP before grid preparation.

For orientation: stoichiometry N means a count of units in the complex or per binding partner. The substance “Schlegelella thermodepolymerans KpsE (L77C, S138C) (natural protein)” registered a stoichiometry N of 8.

The values above are taken from paper PMC11041684.
